Results on one substance are retold here after PMC12764052.

In this assay the target is Pyruvate kinase M2 isoform (human (endogenous in AGS and HGC27)) (UniProt P14618). Put plainly: cross-linking.

Pyruvate kinase M2 isoform, P14618 1-531 (natural protein; other documents disagree on this pair), sequence (P14618 whole entry, canonical isoform): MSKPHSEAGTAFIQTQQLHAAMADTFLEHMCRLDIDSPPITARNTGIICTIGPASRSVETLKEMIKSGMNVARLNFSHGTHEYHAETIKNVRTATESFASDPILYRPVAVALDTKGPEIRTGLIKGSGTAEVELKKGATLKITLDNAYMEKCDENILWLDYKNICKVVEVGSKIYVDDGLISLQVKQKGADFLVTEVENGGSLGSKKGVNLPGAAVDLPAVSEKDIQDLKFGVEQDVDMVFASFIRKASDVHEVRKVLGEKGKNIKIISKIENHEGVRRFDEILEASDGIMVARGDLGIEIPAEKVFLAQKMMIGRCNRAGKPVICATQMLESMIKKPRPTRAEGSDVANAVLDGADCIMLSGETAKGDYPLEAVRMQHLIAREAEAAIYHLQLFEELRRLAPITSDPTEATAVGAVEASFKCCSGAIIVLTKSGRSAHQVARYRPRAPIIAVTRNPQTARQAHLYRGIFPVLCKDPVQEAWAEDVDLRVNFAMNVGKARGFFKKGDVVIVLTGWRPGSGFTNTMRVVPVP

By stoichiometry N is commonly meant the number of molecules, sites or subunits per partner or assembly. The substance “Pyruvate kinase M2 isoform, P14618 1-531 (natural protein; other documents disagree on this pair)” displayed a stoichiometry N of 2.
